In US20260193342A1 (ZOETIS SERVICES, published 2026) one finds Kd data, which are given here for nine molecules.

Numbering of substitutions follows the chain as printed.

B1: mAb1, caninized anti-IL31 antibody 34D03, canine IgGA, N434Y (antibody)
heavy: EVQLVESGGDLVKPGGSLRLSCVASGFTFSNYGMSWVRQAPGKGLQWVATISYGGSYTYYPDNIKGRFTISRDNAKNTLYLQMNSLRAEDTAMYYCVRGYGYDTMDYWGQGTLVTVSSASTTAPSVFPLAPSCGSTSGSTVALACLVSGYFPEPVTVSWNSGSLTSGVHTFPSVLQSSGLHSLSSMVTVPSSRWPSETFTCNVVHPASNTKVDKPVFNECRCTDTPPCPVPEPLGGPSVLIFPPKPKDILRITRTPEVTCVVLDLGREDPEVQISWFVDGKEVHTAKTQSREQQFNGTYRVVSVLPIEHQDWLTGKEFKCRVNHIDLPSPIERTISKARGRAHKPSVYVLPPSPKELSSSDTVSITCLIKDFYPPDIDVEWQSNGQQEPERKHRMTPPQLDEDGSYFLYSKLSVDKSRWQQGDPFTCAVMHETLQYHYTDLSLSHSPGK
light: EIVMTQSPASLSLSQEEKVTITCKASQSVSFAGTGLMHWYQQKPGQAPKLLIYRASNLEAGVPSRFSGSGSGTDFSFTISSLEPEDVAVYYCQQSREYPWTFGQGTKLEIKRNDAQPAVYLFQPSPDQLHTGSASVVCLLNSFYPKDINVKWKVDGVIQDTGIQESVTEQDKDSTYSLSSTLTMSSTEYLSHELYSCEITHKSLPSTLIKSFQRSEC
notes: VH/VL: the caninized 34D03 entries of the listing; also called ID No. 7; copies: 2 + 2
B2: mAb1, caninized anti-IL31 antibody 34D03, canine IgGB, N434G (antibody)
heavy: EVQLVESGGDLVKPGGSLRLSCVASGFTFSNYGMSWVRQAPGKGLQWVATISYGGSYTYYPDNIKGRFTISRDNAKNTLYLQMNSLRAEDTAMYYCVRGYGYDTMDYWGQGTLVTVSSASTTAPSVFPLAPSCGSTSGSTVALACLVSGYFPEPVTVSWNSGSLTSGVHTFPSVLQSSGLYSLSSMVTVPSSRWPSETFTCNVAHPASKTKVDKPVPKRENGRVPRPPDCPKCPAPEMLGGPSVFIFPPKPKDTLLIARTPEVTCVVVDLDPEDPEVQISWFVDGKQMQTAKTQPREEQFNGTYRVVSVLPIGHQDWLKGKQFTCKVNNKALPSPIERTISKARGQAHQPSVYVLPPSREELSKNTVSLTCLIKDFFPPDIDVEWQSNGQQEPESKYRTTPPQLDEDGSYFLYSKLSVDKSRWQRGDTFICAVMHEALHGHYTQESLSHSPGK
light: B1 light
notes: VH/VL: the caninized 34D03 entries of the listing; also called ID No. 11; copies: 2 + 2
B3: mAb1, caninized anti-IL31 antibody 34D03, canine IgGB, N434A (antibody)
heavy: B2 heavy with G440A
light: B1 light
notes: VH/VL: the caninized 34D03 entries of the listing; also called ID No. 9; copies: 2 + 2
B4: mAb1, caninized anti-IL31 antibody 34D03, canine IgGB, N434I (antibody)
heavy: B2 heavy with G440I
light: B1 light
notes: VH/VL: the caninized 34D03 entries of the listing; also called ID No. 12; copies: 2 + 2
B5: mAb1, caninized anti-IL31 antibody 34D03, canine IgGB, N434F (antibody)
heavy: B2 heavy with G440F
light: B1 light
notes: VH/VL: the caninized 34D03 entries of the listing; also called ID No. 10; copies: 2 + 2
B6: mAb2 of Table 4A, caninized anti-NGF antibody ZTS-841, canine IgGA, N434W (antibody)
heavy: EVQLVESGGDLVKPGGSLRLSCVASGFTFSSHGMHWVRQSPGKGLQWVAVINSGGSSTYYTDAVKGRFTISRDNAKNTVYLQMNSLRAEDTAMYYCAKESVGGWEQLVGPHFDYWGQGTLVIVSSASTTAPSVFPLAPSCGSTSGSTVALACLVSGYFPEPVTVSWNSGSLTSGVHTFPSVLQSSGLHSLSSMVTVPSSRWPSETFTCNVVHPASNTKVDKPVFNECRCTDTPPCPVPEPLGGPSVLIFPPKPKDILRITRTPEVTCVVLDLGREDPEVQISWFVDGKEVHTAKTQSREQQFNGTYRVVSVLPIEHQDWLTGKEFKCRVNHIDLPSPIERTISKARGRAHKPSVYVLPPSPKELSSSDTVSITCLIKDFYPPDIDVEWQSNGQQEPERKHRMTPPQLDEDGSYFLYSKLSVDKSRWQQGDPFTCAVMHETLQWHYTDLSLSHSPGK
VL: QSVLTQPTSVSGSLGQRVTISCSGSTNNIGILGASWYQLFPGKAPKLLVYGNGNRPSGVPDRFSGADSGDSVTLTITGLQAEDEADYYCQSFDTTLGAHVFGGGTHLTVL
notes: also called ID No. 44
B7: mAb2 of Table 4A, caninized anti-NGF antibody ZTS-841, canine IgGB, N434I (antibody)
heavy: EVQLVESGGDLVKPGGSLRLSCVASGFTFSSHGMHWVRQSPGKGLQWVAVINSGGSSTYYTDAVKGRFTISRDNAKNTVYLQMNSLRAEDTAMYYCAKESVGGWEQLVGPHFDYWGQGTLVIVSSASTTAPSVFPLAPSCGSTSGSTVALACLVSGYFPEPVTVSWNSGSLTSGVHTFPSVLQSSGLYSLSSMVTVPSSRWPSETFTCNVAHPASKTKVDKPVPKRENGRVPRPPDCPKCPAPEMLGGPSVFIFPPKPKDTLLIARTPEVTCVVVDLDPEDPEVQISWFVDGKQMQTAKTQPREEQFNGTYRVVSVLPIGHQDWLKGKQFTCKVNNKALPSPIERTISKARGQAHQPSVYVLPPSREELSKNTVSLTCLIKDFFPPDIDVEWQSNGQQEPESKYRTTPPQLDEDGSYFLYSKLSVDKSRWQRGDTFICAVMHEALHIHYTQESLSHSPGK
VL: B6 VL
notes: also called ID No. 50
B8: mAb2 of Table 4A, caninized anti-NGF antibody ZTS-841, canine IgGA, N434Y (antibody)
heavy: B6 heavy with W443Y
VL: B6 VL
notes: also called ID No. 45
B9: mAb2 of Table 4A, caninized anti-NGF antibody ZTS-841, canine IgGD, N434H (antibody)
heavy: EVQLVESGGDLVKPGGSLRLSCVASGFTFSSHGMHWVRQSPGKGLQWVAVINSGGSSTYYTDAVKGRFTISRDNAKNTVYLQMNSLRAEDTAMYYCAKESVGGWEQLVGPHFDYWGQGTLVIVSSASTTAPSVFPLAPSCGSTSGSTVALACLVSGYFPEPVTVSWNSGSLTSGVHTFPSVLQSSGLYSLSSTVTVPSSRWPSETFTCNVVHPASNTKVDKPVPKESTCKCISPCPVPESLGGPSVFIFPPKPKDILRITRTPEITCVVLDLGREDPEVQISWFVDGKEVHTAKTQPREQQFNSTYRVVSVLPIEHQDWLTGKEFKCRVNHIGLPSPIERTISKARGQAHQPSVYVLPPSPKELSSSDTVTLTCLIKDFFPPEIDVEWQSNGQPEPESKYHTTAPQLDEDGSYFLYSKLSVDKSRWQQGDTFTCAVMHEALQHHYTDLSLSHSPGK
VL: B6 VL
notes: also called ID No. 56

In the first assay the target is T1, canine FcRn complex (FcRn-α subunit and β-microglobulin) (canine, UniProt A0A8I3PFR8 25-347, biotin on the BAP tag by BirA (Example 5 only)). Briefly: SPR (Biacore), biotinylated FcRn on SA chip, IgG flowed, pH 7.4, 15 C. For orientation: In SPR one partner is held on a chip, and binding of the other changes the refractive index at the surface.
T1 sequence (A0A8I3PFR8 entry or part of it, one chain of several): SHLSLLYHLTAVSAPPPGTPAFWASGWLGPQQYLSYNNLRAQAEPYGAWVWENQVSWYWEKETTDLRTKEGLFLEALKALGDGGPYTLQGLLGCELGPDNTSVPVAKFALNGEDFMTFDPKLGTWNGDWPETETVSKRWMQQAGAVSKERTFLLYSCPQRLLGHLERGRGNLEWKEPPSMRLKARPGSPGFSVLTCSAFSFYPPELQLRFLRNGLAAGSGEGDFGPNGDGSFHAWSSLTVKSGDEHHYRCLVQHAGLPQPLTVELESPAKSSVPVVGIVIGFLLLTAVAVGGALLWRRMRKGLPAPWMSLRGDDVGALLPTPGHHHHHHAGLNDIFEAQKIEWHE
Usually Kd stands for the equilibrium constant for the complex coming apart. For the molecule B1, the Kd was found to be 0.573 µM.
Same read-out and setting: in the case of B2 it was 26 µM; in that of B3, 0.175 µM.
The same measure, in the same setting: the figure for B4 is 19.6 µM; for B5 it is 33.7 µM; for B6 it is 1.52 µM.
On the same count and under the same terms, in the case of B7 it was 22.8 µM; in that of B8, 9.53 µM.

Another assay addresses T1, canine FcRn complex (FcRn-α subunit and …). Put plainly: SPR (Biacore), biotinylated FcRn on SA chip, IgG flowed, pH 6, 15 C.
For B1, binding was put at a Kd of 25.2 nM.
Same read-out and setting: in the case of B2 it was 118 nM; in that of B3, 139 nM; in that of B4, 77.1 nM.
The same measure, in the same setting: the figure for B5 is 30.7 nM.
The same measure, in the same setting: in the case of B6 it was 10.6 nM; in that of B7, 2.76 nM; in that of B9, 12 nM.
B8 showed a Kd of 14.3 nM.
